Biological target: TssL-His expressed in A. tumefaciens ΔtssMΔtssL (pTrc-TssL-His) (Agrobacterium tumefaciens)
Assay: pull-down

Hcp, endogenous in A. tumefaciens (natural protein)
Hcp signal relative to TssL-His in the bound fraction, H2O-treated cells: 0.21
